Measured values from the nanobody polyreactivity screen of Harvey et al. (2022).

experiment: yeast display, Sf9 membrane polyspecificity reagent, FACS + sequencing; frameworks hold sequencing errors
In short: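 Nanobodies from a synthetic yeast display library (Saccharomyces cerevisiae BJ5465), induced 36–48 hours with galactose, were stained 1 hour at 4 °C with 10% biotinylated, detergent-solubilized Sf9 membrane reagent, enriched on streptavidin microbeads, then FACS-sorted. Anti-HA (expression) and streptavidin (reagent binding) fluorescence set low and high (top ~1%) gates. Polyreactivity labels come from the gate of origin. Genes were colony-PCR amplified, MiSeq 2 × 250 sequenced and filtered by CDR length.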

| Sequence | polyreactivity (PSR sort gate) |
| --- | --- |
| QVQLVESGGGLVQAGGSLRLSCAASGRIFGYNAMGWYRQAPGNERELVAAITNGGSTNYADSVKGRFTISRDNAKNTVYLQINSLKPEDTAVYYCAVKWYPPGHDYWGQGTQVTVSS | low polyreactivity |
| QVQLVESGGGLVQAGGSLRLSCAASGRIFGYNDMGWYRQAPGKERELVAAINRTGGSTYYADSVKGRFTISRDNGKNTVYLQMNSLKPEDTAVYYCNAVARTKWVQTHTDFITDYDYWGQGTQVTVSS | low polyreactivity |
| QVQLVESGGGLVQAGGSLRLSCAASGRIFGYNSMGWYRQAPGKERELVAAIRRSGGRTFYADSVKGRFTLSRDNAKNTVYLQMNRLKPEDTAVYYCAVRGPGTSTYWYHEYEYWGQGTQVTVSS | high polyreactivity |
| QVQLVESGGGLVQAGGSLRLSCAASGRIFGYTMGWYRPAPGKERELVAAISRSAGSTYYADSVKGRFTISRDNAKNTVYLQMNSLKPEDTAVYYCAATGRYYREYDYWGQGTQVTVSS | high polyreactivity |
| QVQLVESGGGLVQAGGSLRLSCAASGRIFGYYAMGWSRQAPGKERELVASIRRGTRTNYADSVKGRFTISRDNAKNTVYLQMNSLKPEDTAVYYCAATRFQFTTTPWYDYWGQGTHVTVSS | high polyreactivity |
| QVQLVESGGGLVQAGGSLRLSCAASGRIFGYYAMGWYRPAPGKEMELVAAIRYSSGRTYYADSVKGRFTISRDNAKNTVYLQMNSLKPEDTAVYYCAAKDQATYQLNYWGQGTQVTVSS | high polyreactivity |
| QVQLVESGGGLVQAGGSLRLSCAASGRIFGYYAMGWYRQAPGKERELVAAIDGSGGTTYYADSVKGRITISRDNAKNSVYLQMNSLKPEATAVYYCAARGYNSKYGYWGQGTQVTVSS | high polyreactivity |
| QVQLVESGGGLVQAGGSLRLSCAASGRIFGYYAMGWYRQAPGKERELVAAISNGGSTHYADSVKGRFTISRDNANNTVYLQMTSLKPEDTAVYYCAAKASRVDWGYGYWGQGTQVTVSS | high polyreactivity |
| QVQLVESGGGLVQAGGSLRLSCAASGRIFGYYAMGWYRQAPGKERELVAAISYIGGRTYYADSVKGRFTISRDNAKNTGYLQMNSLKPEDTAVYYCDADRDGADVDYWGQGTQVTVSS | high polyreactivity |
| QVQLVESGGGLVQAGGSLRLSCAASGRIFGYYAMGWYRQAPGKERELVAAITWSGGSTYYADSVKGRFTISRDNAKNTVYLQMNSLKPEDNAVYYCAAEKRYRKAFDYWGQGTQVTVSS | high polyreactivity |
| QVQLVESGGGLVQAGGSLRLSCAASGRIFGYYAMGWYRQAPGKERELVAGIDWSGGNTYYADSVKGRFTISRDNAKNTVYLQMNSLKPEDTAVYYCNTVGGRDTAWYDYWGQGTQVTVSS | low polyreactivity |
| QVQLVESGGGLVQAGGSLRLSCAASGRIFGYYAMGWYRQAPGKERELVARIRRRGGSTYYADSVKGRFTISRDNAKNTVYLQMNSLKPEDTAVYYCAAVYYPLVGKRYYYWGQGTQVTVSS | high polyreactivity |
| QVQLVESGGGLVQAGGSLRLSCAASGRIFGYYAMGWYRQAPGKERELVASITNGASTNYADSVKGRFTISRDNAKNTVYLQMNSLKPEDTAVYYWNARRGSRRFGYWGQGTQVTVSS | high polyreactivity |
| QVQLVESGGGLVQAGGSLRLSCAASGRIFGYYAMGWYRQAPGKQRELVAAISWSGGRTYYADSVKGRFTISRDNAKNTVYLQMNSLKPEDTAVYYCNKVYRVPITEEYDYWGQGTQVTVSS | high polyreactivity |
| QVQLVESGGGLVQAGGSLRLSCAASGRIFGYYAMGWYRQAPGTERELVAAITYNGASTYYADSVKGRFTISRDNAKNTVYLQMNSLKPEDTAVYYCAVLTRYGGYGYWGQGTQVTVSS | high polyreactivity |
| QVQLVESGGGLVQAGGSLRLSCAASGRIFGYYGMGWYRPAPGKERELVAAITYRGGSTYYADSVKGRFTISRDNAKNTVYLQMNSLKPEDTAVYYCAADGYSHYPYLYDYWGQGTQVTVSS | low polyreactivity |

| Sequence | polyreactivity (PSR sort gate) |
| --- | --- |
| QVQLVESGGGLVQAGGSLRLSCAASGRIFGYYPKGCYRPAPGKERELVAAISSGGNTNYADSVKGRFTISRDNAKKTVYLQMNSLKPEDTAVYYCSAYHFSFGWIRVDYWGQGTQVTVSS | high polyreactivity |
| QVQLVESGGGLVQAGGSLRLSCAASGRIFGYYTMGWYRQAPGKERELVATIDWSGDSTYYADSVKARFTISRDNAKNTVYLQMNSLKPEDTAVYYCAARDHAFRYYRNPYKGKYDYWGQGTQVPVSS | low polyreactivity |
| QVQLVESGGGLVQAGGSLRLSCAASGRIFHFNAIGWYRQAPGKERELFARIDTRGDSTYYADSVKGRFTISRDNAKNTVYLQMNSLKPEDTAVYYCAARGSRDGPYSGYGYWGQGTQVTVSS | low polyreactivity |
| QVQLVESGGGLVQAGGSLRLSCAASGRIFHGNAMGWYRQAPGKERELVAAISRSGSRTYYADSVKGRFTISRDNAKNTVYLQMNSLKPEDTAVYYCAAVTFSYQDYYWGQVTQVTVSS | high polyreactivity |
| QVQLVESGGGLVQAGGSLRLSCAASGRIFHGYAMGWYRQAPGKESELVAAISSGGRTNYADSVKGRFTISRDNAKYTVYLQMNSLKPEDTAVYYCAAPVLTSDYTLDSYYWGQGTQVTVSS | high polyreactivity |
| QVQLVESGGGLVQAGGSLRLSCAASGRIFHRYVMGWYRQAPGKERELVAAISSGTGSTYYADSVKGRFTISRDTAKNTVYLLMNSLIPEDTAVYYCNAAPGYTSVTYDYWGQGTQVTVSS | high polyreactivity |
| QVQLVESGGGLVQAGGSLRLSCAASGRIFHVYAMGWYRQAPGKERELVAAISSGDRTYYADSVNGRFIISRDNAKNTVYLQMNSLKPEDTAVYYCWLYPAAVSNYWGQGTQVTVSS | low polyreactivity |
| QVQLVESGGGLVQAGGSLRLSCAASGRIFHYNAMGWYRQAPAKERELVAAINRSGGTTNYADSVKGRFTISRDTAKNTVYLEMNSLIPEDTAVYYCNATLPDYWPYYYYLGGDDYWGQGTQVTVSS | low polyreactivity |
| QVQLVESGGGLVQAGGSLRLSCAASGRIFHYNAMGWYRQAPGKERELVAAITRRGTSTYYADSVKGRFTISRDNAKNTVYLQMNSLKPEDTAVYYCATDYGFKDSVVDFDYWGQGTQVTVSS | low polyreactivity |
| QVQLVESGGGLVQAGGSLRLSCAASGRIFHYNAMGWYRQAPGKERELVAVITTIGGDTYYADSVKGRFTISRDNAKNTVYLQMNSLKPEDTAVYYCAARSRSWRQRYGDFDYWGQGTQVTVSS | low polyreactivity |
| QVQLVESGGGLVQAGGSLRLSCAASGRIFHYNAMGWYRQARGKERQLVAAITGGGGSTYYADSVKGRFTISRDNAKNTVYLEKNSLKPEDTAVYYCAKRYRSSSIRVYYWGLGTQVTVSS | high polyreactivity |
| QVQLVESGGGLVQAGGSLRLSCAASGRIFHYYMGWYRQAPGKERELVAVISSGDGTYYADSVKGRFTISRDNAKYTVYLQMNSLKPEDTAVYYCAADAPREYVDHYKYDDDYWGQGTQVTVSS | low polyreactivity |
| QVQLVESGGGLVQAGGSLRLSCAASGRIFIAYAMGWYRQAPGKERELVAAITDDGGTNYADSVKGRFTISRDNAKNTVYLQMNSLKPEDTAVYYCAATYLIGYYYVWEYDYWGQGTHVTVSS | low polyreactivity |
| QVQLVESGGGLVQAGGSLRLSCAASGRIFIDYAMAWYRQAPGKESELVATNTSSGGSTYYADSVKGRFTISRDNAKNTVYLLMNSLNPEDTAVYFCNKEGSYDYDYWGQGTQVTVSS | low polyreactivity |
| QVQLVESGGGLVQAGGSLRLSCAASGRIFIDYAMGWSRQAHGKERELVAAIDSGGNSNYADSVKGRFTISRDNAKNSVYLQKNSLKPEDTAVYYCNASGVTTDIAGVYWGQGTQVSVSS | low polyreactivity |
| QVQLVESGGGLVQAGGSLRLSCAASGRIFIDYAMGWYRPAPGKERELVATITSSGGSTYYADSVKGRFTISRDNAKNTVYLQMNRLKPEDTAVYYCNKEGSYDYDYWGQGTQVTVSS | low polyreactivity |
